Assay [1] deals with T1, human G protein-coupled receptor class C group 5 member D (GPRC5D) (human, UniProt Q9NZD1 1-345).
T1 construct: also called hGPRC5D
Put plainly: ELISA-based epitope mapping on overlapping 15-mer peptides of the GPRC5D extracellular domains linked to scaffolds (linear, conformational, discontinuous). Background: ELISA stands for enzyme-linked immunosorbent assay.

The target of assay [2] is T1, human G protein-coupled receptor class …. Briefly: scFv phage clones from panning on hGPRC5D-aAPCs, binding to MM cell lines MM.1S and NCI-H929 (endogenous GPRC5D).
Assay [3] deals with T2, SLC38A2 (human, UniProt Q96QD8).
T2 construct: expressed on the surface of HEK293 cells in a cell microarray spot
T2 sequence (single chain, looked up): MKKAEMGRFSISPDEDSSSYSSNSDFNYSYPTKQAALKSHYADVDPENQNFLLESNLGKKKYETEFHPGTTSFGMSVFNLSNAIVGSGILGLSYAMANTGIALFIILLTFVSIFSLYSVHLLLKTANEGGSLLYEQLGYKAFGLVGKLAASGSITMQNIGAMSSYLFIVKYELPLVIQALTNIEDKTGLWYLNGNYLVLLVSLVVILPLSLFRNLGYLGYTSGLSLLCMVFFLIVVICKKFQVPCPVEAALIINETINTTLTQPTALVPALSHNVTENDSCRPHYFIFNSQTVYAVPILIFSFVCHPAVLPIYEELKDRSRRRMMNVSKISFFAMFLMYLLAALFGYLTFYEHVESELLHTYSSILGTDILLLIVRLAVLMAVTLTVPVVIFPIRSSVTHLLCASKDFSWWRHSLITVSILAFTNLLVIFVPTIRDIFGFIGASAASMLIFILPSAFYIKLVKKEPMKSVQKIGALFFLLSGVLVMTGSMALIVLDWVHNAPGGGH
Put plainly: cell microarray of HEK293 cells expressing the indicated surface protein, probed with scFv-mIgG2a Fc. The protocol:
(§1) Cell microarrays were assessed for binding by automated fluorescent microscopy with a fluorescently labeled anti-mIgG2a secondary antibody.

In assay [4] the target is T3, EGFR (human, UniProt P00533).
T3 construct: expressed on the surface of HEK293 cells in a cell microarray spot
The assay is described as above. The protocol:
as §1

In assay [5] the target is T4, CD86 (human, UniProt P42081).
T4 construct: expressed on the surface of HEK293 cells in a cell microarray spot; target of the positive control
T4 sequence (single chain, looked up): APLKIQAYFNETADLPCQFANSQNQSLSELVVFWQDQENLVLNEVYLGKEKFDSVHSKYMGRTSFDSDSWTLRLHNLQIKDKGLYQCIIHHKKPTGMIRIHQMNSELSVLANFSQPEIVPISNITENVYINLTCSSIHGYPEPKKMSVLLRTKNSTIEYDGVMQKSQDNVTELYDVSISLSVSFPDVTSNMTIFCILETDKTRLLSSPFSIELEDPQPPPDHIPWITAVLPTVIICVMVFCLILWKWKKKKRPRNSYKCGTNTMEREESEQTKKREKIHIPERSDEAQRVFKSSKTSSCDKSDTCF
Described as above. The protocol: as §1

The target in assay [6] is cynomolgus GPRC5D (cynomolgus). Briefly: cell-based or functional assay.
Assay [7] addresses T1, human G protein-coupled receptor class …. Briefly: cell-cell interaction by automated flow cytometry: HEK293 cells with the non-signaling GPRC5D-203 long spacer CAR (mCherry) against HEK293 cells each expressing one human GPCR (GFP); Z-score. The protocol: In parallel, the cDNA of individual receptors from a library of human GPCRs, in a vector expressing cytoplasmic GFP, was transiently expressed in the HEK293 cells. […] Binding was determined using an automated flow cytometric assay that detects cell-cell interaction.
A general note: In flow cytometry, cells or beads pass a laser one at a time.

Drawing on patent US20210393689A1 (JUNO THERAPEUTICS, published 2021), this text covers binding result and interferon gamma release by CAR-transduced NHP T cells for 10 molecules.

T1 sequence (Q9NZD1 whole entry): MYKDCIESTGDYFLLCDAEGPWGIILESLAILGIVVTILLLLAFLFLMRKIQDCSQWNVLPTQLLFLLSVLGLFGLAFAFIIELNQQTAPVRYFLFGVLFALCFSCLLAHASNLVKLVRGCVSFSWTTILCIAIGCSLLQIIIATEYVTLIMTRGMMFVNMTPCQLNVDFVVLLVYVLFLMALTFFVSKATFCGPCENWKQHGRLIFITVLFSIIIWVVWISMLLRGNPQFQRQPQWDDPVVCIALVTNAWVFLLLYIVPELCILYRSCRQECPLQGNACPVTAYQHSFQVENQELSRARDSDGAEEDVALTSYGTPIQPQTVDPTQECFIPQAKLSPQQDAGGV

B1: GPRC5D-205 scFv clone (scFv, V domains shown)
VH: EVQLVESGGGLIQPGGSLRLSCAASGFTFSNYAMNWVRQAPGKGLEWVSTINGRGSSTIYADSVKGRFTISRDNSKNTLYLQMNSLRAEDTATYYCARYISRGLGDSWGQGTLVTV
VL: QSVVTQPPSMSAAPGQQVTISCSGGNSNIERNYVSWYLQLPGTAPKLVIFDNDRRPSGIPDRFSGSKSGTSATLGITGLQTGDEADYYCGTWDSSLRGWVFGGGTKLTVLG
notes: Human scFv from a phage display library
In the case of B1, in assay [1], the binding result was “binds”.

B2: GPRC5D-204 scFv clone (scFv, V domains shown)
VH: EVQLVESGGGLVQPGGSLRLSCAASGFTFSNYAMSWVRQAPGKGLEWVSAISGSGNTYYADSVKGRFTISRDNSKNTLYLQMNSLRAEDTAVYYCARGSVRYTDIWGQGTLVTVSS
VL: NFMLTQPHSVSESPGKTVSISCTRTSGAIAGAYVQWFQQRPGSAPTTVIYDDNKRPSGVPDRFSGSIDKSSNSASLTISGLKTEDEADYYCQSYDYDSSNVLFGGGTKLTVLG
notes: as for B1
With B2, in assay [2], the binding result is “binds”.

B3: anti-GPRC5D-203 VL/VH scFv (SEQ ID NO: 8) fused to an mIgG2a Fc (Fc fusion, not shown: a dimerising Fc or GST; small tags and cut ends)
scFv: SSELTQDPAVSVALGQTVRITCQGDSLRSYYASWYQQKPGQAPVLVIYGKNNRPSGIPDRFSGSSSGNTASLTITGAQAEDEADYYCNSRDSSGNPPVVFGGGTKLTVLGSRGGGGSGGGGSGGGGSLEMAQVQLVESGGGLVHPGGSLRLSCAASGFTFRSHSMNWVRQAPGKGLEWVSSISSDSTYTYYADSVKGRFTISRDNAKNSLYLQMNSLRAEDTAVYYCARSGGQWKYYDYWGQGTLVTVSS
notes: also called scFv-Fc
As for B3, the binding result in assay [3], in assay [4] and in assay [5] was “no binding” each time.

B4: GPRC5D-202 VH/VL - long (anti-GPRC5D CAR) (protein)
chain: EVQLVESGGGLVKPGGSLRLSCAASGFTFSDYYMSWIRQAPGKGLEWVSYISSSGSTIYYADSVKGRFTISRDNAKNSLYLQMNSLRAEDTAVYYCARGYGKAYDQWGQGTLVTVSSGSRGGGGSGGGGSGGGGSLEMAQSVLTQPPSASGTPGQRVTISCSGSRSNVGGNYVFWYQQVPGATPKLLIYRSNQRPSGVPDRFAGSKSGSSASLAISGLRSEDEADYYCATWDDSLSGFVFGTGTKVTVLESKYGPPCPPCPAPPVAGPSVFLFPPKPKDTLMISRTPEVTCVVVDVSQEDPEVQFNWYVDGVEVHNAKTKPREEQFQSTYRVVSVLTVLHQDWLNGKEYKCKVSNKGLPSSIEKTISKAKGQPREPQVYTLPPSQEEMTKNQVSLTCLVKGFYPSDIAVEWESNGQPENNYKTTPPVLDSDGSFFLYSRLTVDKSRWQEGNVFSCSVMHEALHNHYTQKSLSLSLGKMFWVLVVVGGVLACYSLLVTVAFIIFWVKRGRKKLLYIFKQPFMRPVQTTQEEDGCSCRFPEEEEGGCELRVKFSRSADAPAYQQGQNQLYNELNLGRREEYDVLDKRRGRDPEMGGKPRRKNPQEGLYNELQKDKMAEAYSEIGMKGERRRGKGHDGLYQGLSTATKDTYDALHMQALPPR
With B4, the interferon gamma release by CAR-transduced NHP T cells in assay [6] amounted to 10000 pg/mL.

B5: GPRC5D-200 scFv clone (scFv, V domains shown)
VH: EVQLVESGGAFVQPGGSLRLSCAASGFTFSSYAMTWVRQAPGKGLEWVSTISGRGRSTFYADSVKGRFTISRDNSKNTLYLQMNSLRAEDTAVYYCARYYHAGAFDLWGQGTLVTVSS
VL: QSVVTQPASVSGSPGQSITISCTGTSSDVGGYNYVSWYQQHPGKAPKLMIYDVSKRPSGVSNRFSGSKSGNTASLTISGLQAEDEADYYCSSYTSSSTLVFGGGTKLTVLG
notes: Human scFv from a B cell-derived phage display library
Take B5: the binding result in assay [2] was “binds”.

B6: GPRC5D-206 scFv clone (scFv, V domains shown)
VH: QVQLVQSGAEVKKPGASVKVSCKASGYTFTSYYMHWVRQAPGQGLEWMGIINPSGGSTRYAQKFQGRVTMTRDTSTSTVYMELSSLRSEDTAVYYCARGSSRWGGWTGDYWGQGTLVTVSS
VL: QSALTQPASVSGSPGQSITISCTGTSSDVGGYNFVSWYQQHPGKAPKVMIYDVSKRPSGISNRFSGSKSGNTASLTISGLQVEDEAEYYCSSYTSTRTVIFAGGTKVTVLG
notes: as for B1
For B6, the binding result in assay [2] is “binds”.

B7: GPRC5D-203 scFv clone (scFv, V domains shown)
VH: QVQLVESGGGLVHPGGSLRLSCAASGFTFRSHSMNWVRQAPGKGLEWVSSISSDSTYTYYADSVKGRFTISRDNAKNSLYLQMNSLRAEDTAVYYCARSGGQWKYYDYWGQGTLVTVSS
VL: SSELTQDPAVSVALGQTVRITCQGDSLRSYYASWYQQKPGQAPVLVIYGKNNRPSGIPDRFSGSSSGNTASLTITGAQAEDEADYYCNSRDSSGNPPVVFGGGTKLTVLG
notes: as for B1
Take B7: the binding result in assay [1] is “binds”.

B8: GPRC5D-201 scFv clone (scFv, V domains shown)
VH: QMQLVQSGAEVKKPGASVKVSCKASGYTFNRYAITWVRQAPGQGLEWMGWISAYNGNSHYAQKLQGRVTMTTDTSTGTAYMELRRLRSDDTAVYYCARMAYDSWGQGTLVTVSS
VL: QSVLTQPASVSGSPGQSLTISCTGTSNDVGAYKYVSWYQQYPGKAPKLILYDVFKRPSGVSNRFSGSKSDNTASLTISGLQAEDEADYYCFSLTSSNTYVFGTGTKVTVLG
notes: as for B1
For B8, the binding result in assay [1] is “binds”.

B9: GPRC5D-203 VL/VH, long spacer CAR but lacking the signaling domains (other)
chain: SSELTQDPAVSVALGQTVRITCQGDSLRSYYASWYQQKPGQAPVLVIYGKNNRPSGIPDRFSGSSSGNTASLTITGAQAEDEADYYCNSRDSSGNPPVVFGGGTKLTVLGSRGGGGSGGGGSGGGGSLEMAQVQLVESGGGLVHPGGSLRLSCAASGFTFRSHSMNWVRQAPGKGLEWVSSISSDSTYTYYADSVKGRFTISRDNAKNSLYLQMNSLRAEDTAVYYCARSGGQWKYYDYWGQGTLVTVSSESKYGPPCPPCPAPPVAGPSVFLFPPKPKDTLMISRTPEVTCVVVDVSQEDPEVQFNWYVDGVEVHNAKTKPREEQFQSTYRVVSVLTVLHQDWLNGKEYKCKVSNKGLPSSIEKTISKAKGQPREPQVYTLPPSQEEMTKNQVSLTCLVKGFYPSDIAVEWESNGQPENNYKTTPPVLDSDGSFFLYSRLTVDKSRWQEGNVFSCSVMHEALHNHYTQKSLSLSLGKMFWVLVVVGGVLACYSLLVTVAFIIFWV
notes: Transiently expressed on HEK293 cells from a cell surface expression vector with cytoplasmic mCherry; also called non-signaling CAR
For the molecule B9, the binding result in assay [7] is on record as “binds”.

B10: GPRC5D-202 scFv clone (scFv, V domains shown)
VH: EVQLVESGGGLVKPGGSLRLSCAASGFTFSDYYMSWIRQAPGKGLEWVSYISSSGSTIYYADSVKGRFTISRDNAKNSLYLQMNSLRAEDTAVYYCARGYGKAYDQWGQGTLVTVSS
VL: QSVLTQPPSASGTPGQRVTISCSGSRSNVGGNYVFWYQQVPGATPKLLIYRSNQRPSGVPDRFAGSKSGSSASLAISGLRSEDEADYYCATWDDSLSGFVFGTGTKVTVLG
notes: as for B1
Take B10: the binding result in assay [1] is “binds”.
